Experiments:
Type in all cases: biochemical, Brevibacillus laterosporus
NAGK enzyme [1] = assay: NAGK enzyme assay, titration with arginine; conditions: NAGK 100 ng/mL; for A540 nm: 70 mM NAG, 30 minutes 37° C., no-arginine control 0.284
Description: (§1) The NAGK enzyme assay was adapted from the method of Denes (1970). Product formation was quantified using a Spectramax 190 spectrophotometer at 540 nm.
The following master mix for NAGK in vitro enzyme assays was prepared for the purpose of determining the effect of arginine on NAGK enzyme activity: 50 mM Tris; final pH was 5.5;100 mM hydroxylamine (NH2OH); 10 mM MgCl2; 7 mM ATP; 70 mM NAG.
This master mix was subdivided into individual wells in a 96-well plate (200 uL/well final volume), and then varying concentrations of arginine (0.15 mM to 10 mM) were then added to individual wells. The enzyme reactions were then initiated by addition of NAGK enzyme (100 ng/mL). Following 30 minutes of incubation at 37° C., the absorbance of each sample was quantified. A control reaction without arginine was prepared an analyzed alongside.

NAGK enzyme [2] = assay: NAGK enzyme assay, titration with substrate (NAG); conditions: 1000 ng/mL NAGK, 1 hour 37° C., no-substrate control (0.041) subtracted
Description: as §1
The following master mix for NAGK in vitro enzyme assays was prepared for the purpose of titrating the substrate (NAG) into the reaction: 50 mM Tris; final pH was 5.5; 100 mM hydroxylamine (NH2OH); 10 mM MgCl2; 7 mM ATP; 1000 ng/mL NAGK enzyme (from protein extract).
This master mix was subdivided into individual wells in a 96-well plate (200 uL/well final volume), and reactions were then initiated by adding various concentrations of the substrate NAG into individual sample wells. The NAG concentrations ranged from 1.6 mM up to 100 mM. Following 1 hour of incubation at 37° C., the absorbance of each sample was quantified. A control reaction without substrate was prepared an analyzed alongside.

NAGK enzyme [3] = assay: NAGK enzyme assay, titration with NAGK enzyme; conditions: 70 mM NAG, 1 hour 37° C.; for A540 nm: buffer control (0.040) subtracted
Description: NAGK overexpression vector pAX4389 was transformed into electrocompetent E. coli cells (BL21 *DE3, Invitrogen) and single colonies were obtained by selection on the antibiotic kanamycin. An individual colony was then grown in liquid medium (LB broth) until the culture absorbance (at 600 nm) reached 0.6, and then 0.5 mM IPTG was added to induce expression from the T7 promoter. Induction was carried out overnight at 16° C. The following day, the induced culture was centrifuged and the pellet was frozen for two hours at −20° C. After thawing on ice, the pellet was resuspended in […] of lysis buffer (50 mM Hepes, pH 7.0, 50 mM NaCl), treated with Lysozyme (Novagen) at room temperature for 30 minutes, and then sonicated to lyse the cells. Insoluble material was separated from the soluble protein extract through centrifugation. This protein extract was then stored in an ice bucket, and NAGK enzyme assays were prepared a short time later. As a negative control, a control vector was prepared alongside that directed the overexpression of a bacterial EPSPS enzyme in the same base vector (pRSF-1b). This vector was likewise transformed into the same E. coli cell line and a transformant colony was selected for protein overexpression and a protein extract was prepared alongside NAGK.
as §1
A master mix for the NAGK in vitro reaction was prepared with the following components: 50 mM Tris, pH 8.0; final pH of the master mix was 5.5; 100 mM hydroxylamine (NH2OH); 10 mM MgCl2; 7 mM ATP; 70 mM N-acetylglutamate (NAG).
This master mix was subdivided into individual wells in a 96-well plate (200 uL/well final volume), and reactions were then initiated by adding various concentrations of NAGK protein extract into individual sample wells. Following 1 hour of incubation at 37° C., the absorbance of each sample was quantified. The quantity of NAGK protein in the extract was estimated by loading dilutions of the extract on a SDS-polyacrylamide gel alongside known concentrations of a bovine serum albumin standard, and then staining the gel with Coomassie protein stain (Simply Blue, Invitrogen).
By this method, it was observed that addition of NAGK protein extract at concentrations as low as 1 ng/mL generated an absorbance product at 540 nm. The absorbance results from the enzyme product (N-actylglutamyl-5-phosphate) reacting with hydroxylamine to create the absorbent compound N-acetyglutamyl-5-hydroxamate. The graph (FIG. 1) and table (Table 3) show the absorbance at each of 6 different concentrations of NAGK protein. The baseline absorbance generated by a buffer control (A540=0.04) was subtracted from each NAGK absorbance value.

Molecule `N=C(N)NCCC[C@H](N)C(=O)O` [Arginine, arginine] has an A540 nm (NAGK enzyme [1]; Arginine 0.16 mM) of 0.291, an A540 nm (NAGK enzyme [1]; Arginine 0.31 mM) of 0.259 and an A540 nm (NAGK enzyme [1]; Arginine 0.63 mM) of 0.263. For the same molecule, the A540 nm (NAGK enzyme [1]; Arginine 1.25 mM) was 0.237, the A540 nm (NAGK enzyme [1]; Arginine 2.5 mM) was 0.257 and the A540 nm (NAGK enzyme [1]; Arginine 5 mM) was 0.266. For the same molecule, the A540 nm (NAGK enzyme [1]; Arginine 10 mM) was 0.287 and the “effect of arginine on product formation by the NAGK enzyme” value (NAGK enzyme [1]; arginine 0.15 mM to 10 mM) was “insensitive”.

B1: NAGK: arginine-insensitive N-acetyl glutamate kinase (SEQ ID NO:2) from Brevibacillus laterosporus, 6-histidine tagged, E. coli protein extract (protein)
chain: MLHEVMVIKCGGSMLEQLPESFYNKLATLQAEGRSIVIVHGGGPAINQMLEQLKIEPTFSNGLRVTDEPTMQAVEMVLSGPINKLVVRKLLHAGGKAWGLSGVDGSLLQAVEKTQGLGLVGSITVVDQAPLQLLLSNGYIPVVSPIAVSEDGRTRYNCNADTVAGAIASALGAKQLLMLTDVPGIWAENELGEKQLLPTVTTEDIQLMMKNQIITGGMIPKVQAALDALAQGVQEVVICKGEAETLDGVVKGMAVGTSISAEMSRGQDSQAFISNKV
modifications: Zea mays
Work on B1 yielded an A540 nm (NAGK enzyme [2]; NAG 1.6 mM) of 0.07, an A540 nm (NAGK enzyme [2]; NAG 3.1 mM) of 0.13 and an A540 nm (NAGK enzyme [2]; NAG 6.3 mM) of 0.0212. It also gave an A540 nm (NAGK enzyme [2]; NAG 12.5 mM) of 0.313, an A540 nm (NAGK enzyme [2]; NAG 25 mM) of 0.411 and an A540 nm (NAGK enzyme [2]; NAG 50 mM) of 0.515. The A540 nm (NAGK enzyme [2]; NAG 100 mM) was 0.57, the “lowest concentration of NAGK protein extract that generated an absorbance product at 540 nm” value (NAGK enzyme [3]) was 1 ng/mL and the A540 nm (NAGK enzyme [3]; NAGK 1 ng/mL) was 0.001. For the same molecule, the A540 nm (NAGK enzyme [3]; NAGK 3.9 ng/mL) was 0.002, the A540 nm (NAGK enzyme [3]; NAGK 15.6 ng/mL) was 0.039 and the A540 nm (NAGK enzyme [3]; NAGK 62.5 ng/mL) was 0.0159. It also gave an A540 nm (NAGK enzyme [3]; NAGK 250 ng/mL) of 0.518 and an A540 nm (NAGK enzyme [3]; NAGK 1000 ng/mL) of 0.872.
